The values that follow come from patent US20230129258A1 (Bicycle, published 2023).

Assay [1] deals with CD137 on Jurkat reporter cells (Promega kit CS196005) (UniProt Q07011 24-255, limits assumed). Description: cell-based or functional assay.
The target of assay [2] is T1, Nectin-1 (2880-N1, R&D Systems) (UniProt Q15223 31-334, limits assumed, biotinylated).
T1 sequence (looked up): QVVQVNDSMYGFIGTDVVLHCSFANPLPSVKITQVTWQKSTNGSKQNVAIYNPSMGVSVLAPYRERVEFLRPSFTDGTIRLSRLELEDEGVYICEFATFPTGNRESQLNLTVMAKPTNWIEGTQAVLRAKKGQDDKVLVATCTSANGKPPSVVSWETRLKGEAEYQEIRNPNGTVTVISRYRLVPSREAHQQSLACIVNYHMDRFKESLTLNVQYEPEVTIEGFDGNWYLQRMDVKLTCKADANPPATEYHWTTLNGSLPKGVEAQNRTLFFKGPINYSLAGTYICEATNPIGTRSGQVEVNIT
Description: SPR, biotinylated target on streptavidin surface. For orientation: In SPR one partner is held on a chip, and binding of the other changes the refractive index at the surface.

Assay [3] deals with T2, Nectin-2 (2229-N2, R&D Systems) (UniProt Q92692 32-360, limits assumed, biotinylated).
T2 sequence (looked up): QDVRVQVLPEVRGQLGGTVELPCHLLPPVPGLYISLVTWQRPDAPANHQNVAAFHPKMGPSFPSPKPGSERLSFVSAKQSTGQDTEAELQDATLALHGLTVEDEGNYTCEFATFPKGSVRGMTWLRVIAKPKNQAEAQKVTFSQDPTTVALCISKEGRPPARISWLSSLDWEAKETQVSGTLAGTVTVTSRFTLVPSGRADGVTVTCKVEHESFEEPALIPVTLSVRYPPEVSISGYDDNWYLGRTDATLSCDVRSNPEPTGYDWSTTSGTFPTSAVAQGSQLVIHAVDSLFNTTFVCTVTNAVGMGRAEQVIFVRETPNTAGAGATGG
Briefly: SPR, biotinylated target on streptavidin surface.

Assay [4] addresses Nectin-3 (3064-N3, R&D Systems) (UniProt Q9NQS3 58-404, limits assumed, biotinylated). Briefly: SPR, biotinylated target on streptavidin surface.
Assay [5] concerns the target T3, Nectin-like-1 (3678-S4-050, R&D Systems) (UniProt Q8N126 25-330, biotinylated).
T3 sequence (looked up): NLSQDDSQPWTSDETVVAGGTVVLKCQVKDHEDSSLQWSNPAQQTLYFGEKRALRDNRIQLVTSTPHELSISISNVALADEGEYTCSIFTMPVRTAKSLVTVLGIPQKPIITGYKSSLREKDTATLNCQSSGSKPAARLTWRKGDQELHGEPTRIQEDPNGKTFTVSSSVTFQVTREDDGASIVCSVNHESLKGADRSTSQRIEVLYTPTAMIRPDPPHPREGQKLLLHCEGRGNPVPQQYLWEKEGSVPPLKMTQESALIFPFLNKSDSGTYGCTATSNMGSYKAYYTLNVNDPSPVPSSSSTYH
Description: SPR, biotinylated target on streptavidin surface.

Assay [6] has as its target T4, Nectin-like-2 (3519-S4-050, R&D Systems) (UniProt Q9BY67 45-374, biotinylated).
T4 sequence (looked up): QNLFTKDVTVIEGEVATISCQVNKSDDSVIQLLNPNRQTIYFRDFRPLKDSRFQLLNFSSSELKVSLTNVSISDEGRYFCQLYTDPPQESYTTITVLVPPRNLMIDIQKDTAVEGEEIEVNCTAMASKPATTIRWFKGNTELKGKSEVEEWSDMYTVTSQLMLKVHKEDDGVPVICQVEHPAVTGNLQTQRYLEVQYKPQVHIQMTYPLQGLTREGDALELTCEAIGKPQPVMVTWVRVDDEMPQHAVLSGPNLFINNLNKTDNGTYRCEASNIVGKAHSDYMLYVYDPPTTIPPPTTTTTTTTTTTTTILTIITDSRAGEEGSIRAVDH
Description: SPR, biotinylated target on streptavidin surface.

Assay [7] deals with T5, Nectin-like-4 (4164-S4, R&D Systems) (UniProt Q8NFZ8 21-324, biotinylated).
T5 sequence (looked up): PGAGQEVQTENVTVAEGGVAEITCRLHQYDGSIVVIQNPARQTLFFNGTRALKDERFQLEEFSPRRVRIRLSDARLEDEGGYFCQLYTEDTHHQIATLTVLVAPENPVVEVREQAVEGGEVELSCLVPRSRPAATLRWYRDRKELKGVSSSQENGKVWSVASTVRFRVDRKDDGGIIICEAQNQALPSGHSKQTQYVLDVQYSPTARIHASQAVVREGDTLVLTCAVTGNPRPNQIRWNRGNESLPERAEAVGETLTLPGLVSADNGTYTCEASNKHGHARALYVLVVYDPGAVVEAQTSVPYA
Briefly: SPR, biotinylated target on streptavidin surface.

The target in assay [8] is T6, Nectin-like-5 (2530-CD-050, R&D Systems) (UniProt P15151 27-343, biotinylated).
T6 sequence (looked up): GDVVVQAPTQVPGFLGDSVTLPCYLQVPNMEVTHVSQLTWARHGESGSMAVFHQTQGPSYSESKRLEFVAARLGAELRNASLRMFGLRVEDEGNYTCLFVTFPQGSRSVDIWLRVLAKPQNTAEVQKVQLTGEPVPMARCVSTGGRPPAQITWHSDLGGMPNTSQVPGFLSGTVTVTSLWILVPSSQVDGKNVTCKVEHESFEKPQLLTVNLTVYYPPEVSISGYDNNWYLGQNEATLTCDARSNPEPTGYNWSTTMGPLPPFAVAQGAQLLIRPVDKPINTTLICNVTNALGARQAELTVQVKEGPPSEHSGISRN
Description: SPR, biotinylated target on streptavidin surface.

In assay [9] the target is T7, rat Nectin-4 extracellular domain (rat, UniProt D3ZET1 31-348, biotinylated where captured on the streptavidin chip).
T7 construct: extracellular domain
T7 sequence: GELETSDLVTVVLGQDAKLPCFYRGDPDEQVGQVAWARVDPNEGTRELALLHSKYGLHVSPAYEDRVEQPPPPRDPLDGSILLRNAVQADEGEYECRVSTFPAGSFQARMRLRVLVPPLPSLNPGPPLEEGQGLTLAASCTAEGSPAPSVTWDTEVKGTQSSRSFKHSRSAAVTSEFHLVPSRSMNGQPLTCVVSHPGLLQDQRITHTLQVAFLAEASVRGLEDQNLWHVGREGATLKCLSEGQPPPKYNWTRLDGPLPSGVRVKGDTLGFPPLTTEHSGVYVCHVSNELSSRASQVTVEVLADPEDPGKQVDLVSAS
Briefly: SPR direct binding, biotinylated Nectin-4 ECD on streptavidin chip, 25° C., n = 6.

Starred links: 1 amine or outer side, 2 acyl side, 3 side chain; linkers in the order of their positions; H or OH if unused. Positions of bridges follow the written chain, without caps; N, C: chain ends. Non-standard residues stand in square brackets, D forms with d. Chains are numbered I, II in the order given. No end group written: not given here. dLys(PYA) = D-lysine Nε-acylated with 4-pentynoic acid, clicked (triazole) to the linker azide, O=C(CCc1cn([*:3])nn1)NCCCC[C@@H](N[*:1])C(=O)[*:2]; TATA = O=C(CC[*:1])N1CN(C(=O)CC[*:2])CN(C(=O)CC[*:3])C1; 1Nal = N[C@@H](Cc1cccc2ccccc12)C(=O)O; Hyp = O=C(O)[C@@H]1C[C@@H](O)CN1; hArg = N=C(N)NCCCC[C@H](N)C(=O)O; tBuAla = CC(C)(C)C[C@H](N)C(=O)O; Nle = CCCC[C@H](N)C(=O)O

Sequence of CD137 on Jurkat reporter cells (Promega kit CS196005) (Q07011 24-255 limits assumed): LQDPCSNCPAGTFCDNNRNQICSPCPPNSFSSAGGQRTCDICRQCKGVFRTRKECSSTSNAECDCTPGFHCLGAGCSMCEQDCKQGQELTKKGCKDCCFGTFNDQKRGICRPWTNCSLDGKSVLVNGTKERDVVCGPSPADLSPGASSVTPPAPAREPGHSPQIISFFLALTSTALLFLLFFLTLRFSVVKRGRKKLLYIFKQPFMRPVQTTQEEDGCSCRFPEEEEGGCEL
Sequence of Nectin-3 (3064-N3, R&D Systems) (Q9NQS3 58-404 limits assumed): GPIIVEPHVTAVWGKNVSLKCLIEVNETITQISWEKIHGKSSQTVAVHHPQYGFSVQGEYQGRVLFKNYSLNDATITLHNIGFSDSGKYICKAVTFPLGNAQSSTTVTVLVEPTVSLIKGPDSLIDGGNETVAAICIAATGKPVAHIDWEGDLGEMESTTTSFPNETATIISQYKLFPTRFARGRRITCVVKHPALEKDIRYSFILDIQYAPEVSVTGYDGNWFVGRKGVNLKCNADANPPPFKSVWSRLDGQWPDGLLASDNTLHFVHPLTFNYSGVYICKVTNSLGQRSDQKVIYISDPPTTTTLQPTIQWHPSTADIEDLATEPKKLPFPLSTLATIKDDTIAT

B1: heterotandem bicyclic peptide complex BCY11863 (peptide)
peptide 1: CP[1Nal][dD]CM[hArg]DWSTP[Hyp]WC
peptide 2: Ac-C[tBuAla]PE[dLys(PYA)]PYCFADPY[Nle]CA
modifications: linker I:1-I:5-I:15, II:1-II:8-II:15 via TATA; not fully specified (bridges); also: 1:2 complex: BCY8116 + 2x BCY8928
notes: also called Nectin-4/CD137 heterotandem
The term Kd denotes the concentration at which binding is half-saturated. Higher therefore signals a looser complex. For the molecule B1, in [1], the “EC50 (nM), NCI-H292 co-culture” value was 0.168 nM. The “Fold Induction over Background, NCI-H292 co-culture” value in assay [1] was found to be 81 fold. Also, the binding result in assay [2], in assay [3], in assay [4], in assay [5], in assay [6] and in [7] was “no binding (tested: 5000 nM)” throughout. In addition, the binding result in assay [8] is “no binding (tested: 5000 nM)”. Further, in [9], the affinity, expressed as Kd, was 15 nM.
